# Test results published in patent US20230312724A1 (KADMON, published 2023).
# Like-named read-outs stand apart in the source and are kept apart here.
# T1: hB7-H4 (soluble human B7-H4, construct not named) (human, UniProt Q7Z7D3 25-259, limits assumed)
# T1 construct: also called soluble hB7-H4
# T1 sequence: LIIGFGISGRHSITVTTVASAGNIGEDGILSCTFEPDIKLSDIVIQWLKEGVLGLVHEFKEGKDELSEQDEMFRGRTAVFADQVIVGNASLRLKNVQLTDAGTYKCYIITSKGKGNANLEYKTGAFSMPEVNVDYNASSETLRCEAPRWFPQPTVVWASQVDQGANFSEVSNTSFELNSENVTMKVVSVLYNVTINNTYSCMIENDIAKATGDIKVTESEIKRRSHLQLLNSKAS
# T2: human B7-H4 expressed on cells (human, UniProt Q7Z7D3 25-282)
# T2 construct: Transfected CHO cells or tumor cell lines that carry hB7-H4; also called cellular hB7-H4
# T2 sequence: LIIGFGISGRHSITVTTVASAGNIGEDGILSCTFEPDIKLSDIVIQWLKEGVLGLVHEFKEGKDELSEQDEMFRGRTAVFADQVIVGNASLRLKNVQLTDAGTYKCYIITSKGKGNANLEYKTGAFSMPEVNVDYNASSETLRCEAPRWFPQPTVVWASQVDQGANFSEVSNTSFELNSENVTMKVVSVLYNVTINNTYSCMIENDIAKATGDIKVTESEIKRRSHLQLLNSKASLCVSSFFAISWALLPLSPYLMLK
# T3: mB7-H4 (soluble mouse B7-H4, construct not named) (mouse, UniProt Q7TSP5 25-257, limits assumed)
# T3 sequence: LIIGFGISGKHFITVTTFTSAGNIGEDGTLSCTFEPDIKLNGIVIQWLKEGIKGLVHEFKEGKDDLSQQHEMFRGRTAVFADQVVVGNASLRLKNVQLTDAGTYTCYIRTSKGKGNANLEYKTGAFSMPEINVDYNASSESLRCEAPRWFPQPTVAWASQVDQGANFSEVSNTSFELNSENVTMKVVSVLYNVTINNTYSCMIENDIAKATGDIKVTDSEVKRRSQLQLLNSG
# T4: mouse B7-H4 expressed on cells (mouse, UniProt Q7TSP5 25-257)
# T4 construct: also called cellular mB7-H4; mB7-H4/CT26
# T4 sequence: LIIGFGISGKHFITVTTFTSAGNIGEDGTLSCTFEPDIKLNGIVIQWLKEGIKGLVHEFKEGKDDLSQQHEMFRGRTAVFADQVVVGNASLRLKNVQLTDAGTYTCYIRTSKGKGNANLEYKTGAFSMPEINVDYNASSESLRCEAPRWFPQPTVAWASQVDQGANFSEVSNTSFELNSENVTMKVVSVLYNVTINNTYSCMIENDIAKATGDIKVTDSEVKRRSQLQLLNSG
# T5: mouse B7-H4-his (mouse, UniProt Q7TSP5 25-257)
# T5 construct: also called mB7-H4-his; mB7-H4-His; not shown: his tag
# T5 sequence: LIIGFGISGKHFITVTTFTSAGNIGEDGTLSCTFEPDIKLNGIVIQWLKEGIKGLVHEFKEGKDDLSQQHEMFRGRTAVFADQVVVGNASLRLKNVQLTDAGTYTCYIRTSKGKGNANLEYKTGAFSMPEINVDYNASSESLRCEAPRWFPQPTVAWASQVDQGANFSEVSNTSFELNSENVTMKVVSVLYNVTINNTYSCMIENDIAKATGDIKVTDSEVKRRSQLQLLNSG
# T6: human B7-H4-his (human, UniProt Q7Z7D3 25-259)
# T6 construct: also called hB7-H4-his; hB7-H4 his; not shown: his tag
# T6 sequence: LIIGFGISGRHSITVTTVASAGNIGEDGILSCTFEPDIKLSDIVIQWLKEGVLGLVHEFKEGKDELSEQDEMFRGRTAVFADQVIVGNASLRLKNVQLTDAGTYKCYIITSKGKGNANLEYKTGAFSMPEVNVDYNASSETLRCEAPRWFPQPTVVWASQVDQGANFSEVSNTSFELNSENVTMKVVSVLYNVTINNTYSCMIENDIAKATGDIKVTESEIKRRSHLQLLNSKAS
# Tests used:
# [1] = biological target: T7, IgV domain of human B7-H4-Fc (human); experiment: ELISA, coated hB7-H4 IgV domain
# T7 construct: also called hB7-H4 IgV domain
# T7 sequence (chain, as listed by the source): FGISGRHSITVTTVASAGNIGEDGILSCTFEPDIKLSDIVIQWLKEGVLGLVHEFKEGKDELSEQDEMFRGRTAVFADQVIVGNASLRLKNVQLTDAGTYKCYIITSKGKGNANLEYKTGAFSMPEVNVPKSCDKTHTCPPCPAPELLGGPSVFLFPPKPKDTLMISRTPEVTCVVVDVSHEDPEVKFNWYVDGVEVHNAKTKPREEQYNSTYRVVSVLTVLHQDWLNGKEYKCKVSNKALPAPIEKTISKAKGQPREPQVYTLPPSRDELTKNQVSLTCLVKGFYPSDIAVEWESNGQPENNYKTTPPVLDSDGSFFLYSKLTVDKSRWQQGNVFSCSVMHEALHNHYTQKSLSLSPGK
# [2] = biological target: T1, hB7-H4 (soluble human B7-H4, construct …); experiment: ELISA, hB7-H4
# Description: (§1) About 1-2 μg/ml of human or mouse B7-H4-Fc (or his-tagged) was immobilized on ELISA plates (Immuno 2HB, Thermo scientific, cat #3455) at 4° C. overnight. After blocking the plates with 3% PBS+milk, serial diluted antibodies were added to the blocked plates and incubated at RT for 1-1.5 h. After washing the plates with PBS-T (0.05%), horse radish peroxidase (HRP)-conjugated antibody targeting the hFab was added to the plate. Signals were developed by adding 3,3′,5,5′-Tetramethylbenzidine (TMB (followed 1N of H₂SO₄ to stop the reaction. The OD at 450 nm was read by ELISA plate reader (Infinite M1000 from TECAN). GraphPad from Prism was used to plot OD450 vs. antibody concentration curve and to calculate the EC50 values.
# mouse B7-H4-Fc [3] = biological target: T8, mouse B7-H4-Fc (mouse; human); experiment: ELISA, coated mB7-H4-Fc
# T8 construct: also called mB7-H4-Fc; mB7-H4-hFc
# T8 sequence (chain, as listed by the source): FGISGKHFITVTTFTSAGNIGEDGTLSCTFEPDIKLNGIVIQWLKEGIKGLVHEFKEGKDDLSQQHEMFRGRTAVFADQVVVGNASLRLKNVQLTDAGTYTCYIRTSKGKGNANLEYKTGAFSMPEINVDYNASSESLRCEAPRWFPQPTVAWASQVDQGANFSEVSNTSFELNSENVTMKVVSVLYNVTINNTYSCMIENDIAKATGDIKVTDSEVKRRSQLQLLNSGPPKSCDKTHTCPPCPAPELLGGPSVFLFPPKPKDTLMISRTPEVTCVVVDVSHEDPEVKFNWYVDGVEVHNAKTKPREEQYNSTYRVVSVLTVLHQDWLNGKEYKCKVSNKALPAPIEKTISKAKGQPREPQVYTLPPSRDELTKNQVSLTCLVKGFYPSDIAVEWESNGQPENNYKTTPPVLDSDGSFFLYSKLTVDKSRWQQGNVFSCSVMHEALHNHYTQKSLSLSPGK
# In short: (§2)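 ~1-2 μg/ml antigen coated o/n 4° C; 3% milk block; Ab serial dil., RT 1-1.5 h; PBS-T wash; HRP-anti-hFab; TMB/1N H₂SO₄; A450. EC50 from OD vs. conc.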
# [4] = biological target: T9, IgC domain of human B7-H4-Fc (human); experiment: ELISA, coated hB7-H4 IgC domain
# T9 construct: also called hB7-H4 IgC domain
# T9 sequence (chain, as listed by the source): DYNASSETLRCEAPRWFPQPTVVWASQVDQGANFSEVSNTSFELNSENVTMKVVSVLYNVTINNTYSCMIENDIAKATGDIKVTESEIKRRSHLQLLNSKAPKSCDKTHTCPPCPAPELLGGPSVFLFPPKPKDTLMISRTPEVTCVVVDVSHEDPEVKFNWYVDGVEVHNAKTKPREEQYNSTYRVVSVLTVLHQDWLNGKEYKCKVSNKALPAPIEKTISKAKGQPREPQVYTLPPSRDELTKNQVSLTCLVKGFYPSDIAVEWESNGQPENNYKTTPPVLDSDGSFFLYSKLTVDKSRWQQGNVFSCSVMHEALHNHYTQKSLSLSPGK
# Description: ELISA experiments were performed to determine binding to hB7-H4-Fc (FIG. 5A), hB7-H4-his (FIG. 5B), mB7-H4-Fc domain (FIG. 5C), hB7-H4 IgV domain (FIG. 5D), and hB7-H4 IgC domain (FIG. 5E). Flow cytrometry experiments were performed to determine binding to CHO cells expressing hB7-H4 (FIG. 5F) or mB7-H4 (FIG. 5G). […] A cross-reactive IgV binding antibody and an IgC binding antibody were used as controls.
# as §1
# [5] = biological target: T9, IgC domain of human B7-H4-Fc; experiment: ELISA, coated hB7-H4 IgC domain; remark: listed apart in the source
# [6] = biological target: T2, human B7-H4 expressed on cells; experiment: flow cytometry, SK-BR-3 cells
# [7] = biological target: T1, hB7-H4 (soluble human B7-H4, construct …); experiment: SPR (Biacore)
# [8] = biological target: T3, mB7-H4 (soluble mouse B7-H4, construct …); experiment: SPR (Biacore); values equal to Table 11
# [9] = biological target: T3, mB7-H4 (soluble mouse B7-H4, construct …); experiment: ELISA, mB7-H4
# Description: as §1
# [10] = biological target: T4, mouse B7-H4 expressed on cells; experiment: flow cytometry, mB7-H4/CT26 cells
# [11] = biological target: T10, IgV domain of mouse B7-H4-Fc (mouse; human); experiment: ELISA, coated mB7-H4 IgV domain
# T10 construct: also called mB7-H4 IgV domain
# T10 sequence (chain, as listed by the source): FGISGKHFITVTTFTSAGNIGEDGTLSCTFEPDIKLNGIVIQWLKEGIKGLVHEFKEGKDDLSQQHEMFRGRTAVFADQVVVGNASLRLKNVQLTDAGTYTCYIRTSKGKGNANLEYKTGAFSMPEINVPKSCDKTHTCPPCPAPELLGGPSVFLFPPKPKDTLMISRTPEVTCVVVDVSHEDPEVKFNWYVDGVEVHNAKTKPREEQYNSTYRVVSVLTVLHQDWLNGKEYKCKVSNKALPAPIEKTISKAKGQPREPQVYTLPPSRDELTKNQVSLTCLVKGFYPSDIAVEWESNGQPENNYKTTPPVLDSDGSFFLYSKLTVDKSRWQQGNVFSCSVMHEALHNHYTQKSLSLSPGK
# mouse B7-H4-Fc [12] = biological target: T8, mouse B7-H4-Fc; experiment: ELISA, coated mB7-H4-Fc; remark: listed apart in the source
# Description: (§3) ELISA experiments were performed to determine binding to hB7-H4-Fc (FIG. 3A), hB7-H4-his (FIG. 3B), mB7-H4-Fc (FIG. 3C), and hB7-H4 IgV domain (FIG. 3D). Flow cytometry experiments were performed to determine binding to CHO cells expressing hB7-H4 (FIG. 3E) or mB7-H4 (FIG. 3F).
# as §1
# [13] = biological target: T4, mouse B7-H4 expressed on cells; experiment: flow cytometry, CHO cells expressing mB7-H4
# Description: as §3
# Cells were harvested, washed once, and then re-suspended to the concentration of 1×10⁶ cells/ml in ice cold FACS Buffer. 25 μl of cell suspension was added to each well of a 96-well round-bottom microliter plate. Serially diluted antibodies or fusion proteins were added to each well and incubated for 1 hour at 4° C. Cells were washed three times by centrifugation at 1500 rpm for 5 minutes, and then stained with secondary antibody (1:200 dilution) for 30 min at 4° C. in the dark. Cells were washed once, re-suspended in 100 μl PBS buffer and then analyzed using Guava Flow Cytometry EasyCyte system.
# [14] = biological target: T2, human B7-H4 expressed on cells; experiment: flow cytometry, SK-BR-3 cells; remark: listed apart in the source
# In short: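 Binding read on a Guava flow cytometer after two-step staining at 4 °C: serial dilutions of antibody or fusion protein for 1 h, then 1:200 secondary antibody for 30 min in the dark. Cells suspended at 1×10⁶ cells/ml in cold FACS buffer, washed three times between steps.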
# mouse B7-H4-his = biological target: T5, mouse B7-H4-his; experiment: ELISA, coated mB7-H4-his
# Description: as §1
# human B7-H4-Fc = biological target: T11, human B7-H4-Fc (human); experiment: SPR (Biacore)
# T11 construct: also called hB7-H4-Fc; hB7-H4 Fc
# T11 sequence (chain, as listed by the source): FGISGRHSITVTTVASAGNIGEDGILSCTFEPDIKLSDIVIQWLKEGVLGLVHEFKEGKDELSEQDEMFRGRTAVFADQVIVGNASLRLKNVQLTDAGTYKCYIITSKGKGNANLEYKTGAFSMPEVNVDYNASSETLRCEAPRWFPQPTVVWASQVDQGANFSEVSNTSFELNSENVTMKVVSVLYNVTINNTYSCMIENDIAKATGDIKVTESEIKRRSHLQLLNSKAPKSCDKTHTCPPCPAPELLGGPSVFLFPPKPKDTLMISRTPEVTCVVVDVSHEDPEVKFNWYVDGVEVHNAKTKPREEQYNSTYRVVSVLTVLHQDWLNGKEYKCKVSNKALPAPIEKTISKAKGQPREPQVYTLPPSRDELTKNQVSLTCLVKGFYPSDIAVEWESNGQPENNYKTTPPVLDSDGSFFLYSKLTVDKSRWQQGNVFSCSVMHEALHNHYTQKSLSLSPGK
# Description: (§4) Surface plasmon resonance experiments were performed using a Biacore T200 instrument equipped with CM5 sensor chips. The system was equilibrated in running buffer HBS-EP pH 7.4. The ligands were immobilized using amine-coupling chemistry. The surfaces of flow cells one through four were activated for 5 min using an amine coupling kit at a flow rate of […]. The ligands (human B7-H4-Fc, human B7-H4-hism and mouse B7-H4-Fc; at a concentration of 5 μg/ml in 10 mM sodium acetate, pH 5.0) were immobilized at a density of 50-100 RU on flow cell 2, 3, 4 respectively. Flow cell 1 was left blank to serve as a reference surface. All flow cell surfaces were blocked with a 5 min injection of 1 M ethanolamine, pH 8.0. To collect kinetic binding data, the respective analyte (diluted in 1×HBS-EP buffer, pH 7.4) was injected over the four flow cells at concentrations of 100 nM to 0.1 nM at a flow rate of […] and at a temperature of 25° C. The protein complex was allowed to associate and dissociate for 180 seconds and 1000 or 1200 seconds, respectively. The surfaces were regenerated with a 30 second injection of 1.5 M NaCl/0.05 M NaOH. The data were fit to a simple 1:1 interaction model using the Langmuir fit option available within the Biaevaluaton software
# (§5) The kinetics for binding of the different antibodies to their targets were examined using Biacore analysis.
# human B7-H4-his = biological target: T6, human B7-H4-his; experiment: SPR (Biacore)
# Description: as §4, §5
# [15] = biological target: T1, hB7-H4 (soluble human B7-H4, construct …); experiment: SPR (Biacore); remark: listed apart in the source
# In short: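 Kinetic constants came from a 1:1 Langmuir fit of binding at 25 °C in HBS-EP, pH 7.4. Analyte (100 nM to 0.1 nM) flowed for 180 s, then dissociated for 1000 or 1200 s, over amine-coupled human B7-H4-Fc, human B7-H4-his or mouse B7-H4-Fc surfaces at 50-100 RU.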
# [16] = biological target: T10, IgV domain of mouse B7-H4-Fc; experiment: ELISA, coated mB7-H4 IgV domain; remark: listed apart in the source
# Description: as §1
# [17] = biological target: T12, IgC domain of mouse B7-H4-Fc (mouse; human); experiment: ELISA, coated mB7-H4 IgC domain (title on the sheet: IgC domain of mB7H4)
# T12 construct: also called mB7-H4 IgC domain
# T12 sequence (chain, as listed by the source): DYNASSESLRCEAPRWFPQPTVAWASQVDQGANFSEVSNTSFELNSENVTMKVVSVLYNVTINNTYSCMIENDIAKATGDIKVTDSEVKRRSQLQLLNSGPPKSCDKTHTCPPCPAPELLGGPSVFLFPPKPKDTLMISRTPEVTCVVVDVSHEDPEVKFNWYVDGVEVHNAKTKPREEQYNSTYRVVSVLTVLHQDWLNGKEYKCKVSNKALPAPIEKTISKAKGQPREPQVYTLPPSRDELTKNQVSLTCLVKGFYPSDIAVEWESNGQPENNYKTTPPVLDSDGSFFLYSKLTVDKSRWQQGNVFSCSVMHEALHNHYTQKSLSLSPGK
# Description: as §1
# [18] = biological target: T1, hB7-H4 (soluble human B7-H4, construct …); experiment: ELISA, hB7-H4; remark: listed apart in the source
# In short: as §2
# [19] = biological target: T3, mB7-H4 (soluble mouse B7-H4, construct …); experiment: ELISA and SPR (Biacore)
# Description: as §1, §4
binder,measurement,setting,value
"Control antibody 2 (antibody 6H3 described in U.S. Pat. No. 9,574,000) (antibody, V domains shown, also called (+) control Ab2; Ab2) VH: EVQLQQSGPVLVKPGTSVKMSCKASGYTFTDYYMNWVKQSHGKSLEWIGVINPYNGDTTYNQKFKGKATLTVDKSSSTAYMEVNSLTFEDSAVYYCARYPESTYWGQGTLVTVSA VL: DVVMTQTPLSLPVSLGDQASISCRSSQSLVHINGNTYLHWYLQKPGQSPKVLIYKVSNRFSGVPDRFSGSGSGTDFTLKISRVEAEDLGVYFCSQSTHVPLTFGAGTKLELK",binding result,[1],no binding (tested: log 1 nM (10 nM))
same,EC50,[2],0.222 nM
same,binding result,mouse B7-H4-Fc [3],binds
same,EC50 (read off the curve),[4],~0.01 µg/mL
same,EC50 (read off the curve),[5],~0.2 nM
same,EC50,[6],3.37 nM
same,Kd,[7],0.626 nM
same,Kd,[8],0.626 nM
same,EC50,[9],0.289 nM
same,EC50,[10],18.4 nM
same,binding result,[11],no binding (tested: log 1 nM (10 nM))
"3F2/3F2 (antibody, human IgG1, V domains shown) VH: QVQLVQSGAEVKKPGASVKVSCKASGYTFTAQYMYWVRQAPGQGLEWMGRINPTSGNTVYAQKLQGRVTMTRDTSTSTVYMELSSLRSEDTAVYYCARGINWFDPWGQGTLVTVSS VL: not shown",binding result,mouse B7-H4-Fc [12],no binding (tested: axis value -8 (log scale labelled nM))
same,binding result,[13],no binding (tested: axis value -7 (log scale labelled nM))
same,EC50,[14],0.84 nM
same,binding result,mouse B7-H4-his,no binding (tested: axis value -8 (labelled log nM))
same,Kd,human B7-H4-Fc,0.0951 nM
same,Kd,human B7-H4-his,0.0849 nM
same,Kd,[15],0.0819 nM
same,binding result,[16],no binding (tested: axis value -8 (labelled log nM))
same,binding result,[17],no binding (tested: axis value -8 (labelled log nM))
same,EC50,[18],0.048 nM
same,binding result,[19],no binding
